# Reference: paper PMC2756588
# T1: Lsb1, P53281
# T1 sequence (P53281 45-122, looked up): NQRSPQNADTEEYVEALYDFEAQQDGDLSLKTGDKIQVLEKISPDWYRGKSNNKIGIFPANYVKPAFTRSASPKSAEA
# T2: Hse1, P38753
# T2 sequence (P38753 208-285, looked up): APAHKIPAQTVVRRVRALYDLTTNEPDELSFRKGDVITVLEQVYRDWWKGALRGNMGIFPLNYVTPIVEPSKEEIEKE
# T3: Bud14, P27637
# T3 sequence (P27637 247-328, looked up): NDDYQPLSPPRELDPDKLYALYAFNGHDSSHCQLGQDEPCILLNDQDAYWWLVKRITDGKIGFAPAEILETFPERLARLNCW
# T4: Fus1, P11710
# T4 sequence (P11710 432-512, looked up): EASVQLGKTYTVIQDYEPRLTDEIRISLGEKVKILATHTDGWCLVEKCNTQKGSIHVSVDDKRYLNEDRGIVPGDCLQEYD
# T5: Bzz1-2, P38822
# T5 sequence (P38822 568-633, looked up): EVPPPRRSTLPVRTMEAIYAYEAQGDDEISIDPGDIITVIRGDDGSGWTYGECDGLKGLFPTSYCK
# T6: Abp1, P15891
# T6 sequence (P15891 535-592, looked up): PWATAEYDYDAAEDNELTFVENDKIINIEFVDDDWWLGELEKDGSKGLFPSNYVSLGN
# T7: Nbp2, Q12163
# T7 sequence (Q12163 103-180, looked up): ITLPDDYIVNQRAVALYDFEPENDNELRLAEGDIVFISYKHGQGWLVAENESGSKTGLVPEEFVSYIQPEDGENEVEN
# T8: Boi2, P39969
# T8 sequence (P39969 32-116, looked up): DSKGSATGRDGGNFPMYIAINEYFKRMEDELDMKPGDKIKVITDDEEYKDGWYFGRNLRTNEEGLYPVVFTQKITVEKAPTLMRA
# T9: Pex13, P80667
# T9 sequence (P80667 295-386, looked up): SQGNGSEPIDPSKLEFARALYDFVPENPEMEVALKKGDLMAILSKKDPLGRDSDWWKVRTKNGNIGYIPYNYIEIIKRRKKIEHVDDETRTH
# T10: Bzz1-1, P38822
# T10 sequence (P38822 478-572, looked up): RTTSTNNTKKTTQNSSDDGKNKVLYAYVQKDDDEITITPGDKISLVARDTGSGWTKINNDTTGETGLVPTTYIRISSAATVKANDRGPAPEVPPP
# T11: Sla1-2, P32790
# T11 sequence (P32790 60-140, looked up): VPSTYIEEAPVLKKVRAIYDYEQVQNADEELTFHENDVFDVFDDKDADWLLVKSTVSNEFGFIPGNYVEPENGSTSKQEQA
# T12: Pin3, Q06449
# T12 sequence (Q06449 53-122, looked up): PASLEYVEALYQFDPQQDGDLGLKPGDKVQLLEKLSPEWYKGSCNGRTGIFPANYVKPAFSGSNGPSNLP
# T13: Lsb3, P43603
# T13 sequence (P43603 385-451, looked up): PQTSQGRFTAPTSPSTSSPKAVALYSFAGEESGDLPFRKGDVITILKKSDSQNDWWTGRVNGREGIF
# T14: Cdc25, P04821
# T14 sequence (P04821 50-136, looked up): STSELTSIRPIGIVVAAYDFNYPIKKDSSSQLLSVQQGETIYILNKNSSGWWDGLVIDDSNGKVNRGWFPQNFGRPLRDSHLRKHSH
# T15: Lsb4, P32793
# T15 sequence (P32793 402-468, looked up): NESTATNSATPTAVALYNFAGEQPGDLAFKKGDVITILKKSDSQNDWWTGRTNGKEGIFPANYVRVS
# T16: Myo5, Q04439
# T16 sequence (Q04439 1072-1160, looked up): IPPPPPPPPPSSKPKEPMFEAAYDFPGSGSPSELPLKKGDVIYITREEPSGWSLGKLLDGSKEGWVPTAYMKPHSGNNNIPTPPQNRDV
# T17: Sla1-3, P32790
# T17 sequence (P32790 344-424, looked up): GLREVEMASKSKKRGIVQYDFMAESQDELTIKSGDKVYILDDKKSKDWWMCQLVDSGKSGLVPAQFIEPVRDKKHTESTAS
# T18: Bbc1, P47068
# T18 sequence (P47068 1-78, looked up): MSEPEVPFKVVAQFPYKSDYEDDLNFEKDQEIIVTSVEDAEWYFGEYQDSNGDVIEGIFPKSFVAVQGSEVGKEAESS
# T19: Boi1, P38041
# T19 sequence (P38041 1-86, looked up): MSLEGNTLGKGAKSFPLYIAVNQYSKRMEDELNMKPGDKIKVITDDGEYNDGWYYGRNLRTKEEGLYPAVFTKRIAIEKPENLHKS
# T20: Hof1, Q05080
# T20 sequence (Q05080 590-669, looked up): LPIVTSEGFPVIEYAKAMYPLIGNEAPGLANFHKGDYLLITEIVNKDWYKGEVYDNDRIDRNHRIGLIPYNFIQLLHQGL
# T21: Cyk3, Q07533
# T21 sequence (Q07533 1-83, looked up): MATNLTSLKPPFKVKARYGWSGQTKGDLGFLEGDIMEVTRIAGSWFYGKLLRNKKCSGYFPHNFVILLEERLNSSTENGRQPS
# Legend:
# Assay in all cases: SPOT array
# Lsb1, P53281 = molecular target: T1, Lsb1, P53281; settings: median of control spots 388
# Sho1, P40073 = settings: median of control spots 1148
# Bem1-2, P29366 = settings: median of control spots 4347
# Hse1, P38753 = molecular target: T2, Hse1, P38753; settings: median of control spots 1727
# Myo3, P36006 = settings: median of control spots 468
# Bem1-1, P29366 = settings: median of control spots 4282
# Bud14, P27637 = molecular target: T3, Bud14, P27637; settings: median of control spots 956
# Fus1, P11710 = molecular target: T4, Fus1, P11710; settings: median of control spots 1200
# Bzz1-2, P38822 = molecular target: T5, Bzz1-2, P38822; settings: median of control spots 4538
# Abp1, P15891 = molecular target: T6, Abp1, P15891; settings: median of control spots 935
# Rvs167, P39743 = settings: median of control spots 2707
# Nbp2, Q12163 = molecular target: T7, Nbp2, Q12163; settings: median of control spots 357
# Boi2, P39969 = molecular target: T8, Boi2, P39969; settings: median of control spots 1161
# Pex13, P80667 = molecular target: T9, Pex13, P80667; settings: median of control spots 1341
# Bzz1-1, P38822 = molecular target: T10, Bzz1-1, P38822; settings: median of control spots 4446
# Sla1-2, P32790 = molecular target: T11, Sla1-2, P32790; settings: median of control spots 712
# GST = settings: median of control spots 978
# Pin3, Q06449 = molecular target: T12, Pin3, Q06449; settings: median of control spots 2171
# Lsb3, P43603 = molecular target: T13, Lsb3, P43603; settings: median of control spots 406
# Cdc25, P04821 = molecular target: T14, Cdc25, P04821; settings: median of control spots 969
# Lsb4, P32793 = molecular target: T15, Lsb4, P32793; settings: median of control spots 397
# Myo5, Q04439 = molecular target: T16, Myo5, Q04439; settings: median of control spots 471
# Sla1-3, P32790 = molecular target: T17, Sla1-3, P32790; settings: median of control spots 5475
# Bbc1, P47068 = molecular target: T18, Bbc1, P47068; settings: median of control spots 796
# Boi1, P38041 = molecular target: T19, Boi1, P38041; settings: median of control spots 1162
# Hof1, Q05080 = molecular target: T20, Hof1, Q05080; settings: median of control spots 4086
# Cyk3, Q07533 = molecular target: T21, Cyk3, Q07533; settings: median of control spots 1451
# Chain of Bem1-1, P29366 (P29366 55-141): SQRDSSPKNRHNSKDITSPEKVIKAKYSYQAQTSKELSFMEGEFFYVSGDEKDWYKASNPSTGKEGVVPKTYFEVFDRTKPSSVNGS
# Chain of Rvs167, P39743 (P39743 419-482): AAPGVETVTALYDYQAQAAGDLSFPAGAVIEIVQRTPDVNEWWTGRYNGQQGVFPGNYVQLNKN
# Chain of Bem1-2, P29366 (P29366 139-227): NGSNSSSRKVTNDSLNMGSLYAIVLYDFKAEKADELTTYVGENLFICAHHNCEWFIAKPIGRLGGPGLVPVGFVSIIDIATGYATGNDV
# Chain of Sho1, P40073 (P40073 287-367): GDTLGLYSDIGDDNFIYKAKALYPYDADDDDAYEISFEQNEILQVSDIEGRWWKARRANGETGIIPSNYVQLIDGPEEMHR
Binder,"SPOT intensity (Lsb1, P53281)","SPOT intensity (Sho1, P40073)","SPOT intensity (Bem1-2, P29366)","SPOT intensity (Hse1, P38753)","SPOT intensity (Myo3, P36006)","SPOT intensity (Bem1-1, P29366)","SPOT intensity (Bud14, P27637)","SPOT intensity (Fus1, P11710)","SPOT intensity (Bzz1-2, P38822)","SPOT intensity (Abp1, P15891)","SPOT intensity (Rvs167, P39743)","SPOT intensity (Nbp2, Q12163)","SPOT intensity (Boi2, P39969)","SPOT intensity (Pex13, P80667)","SPOT intensity (Bzz1-1, P38822)","SPOT intensity (Sla1-2, P32790)",SPOT intensity (GST),"SPOT intensity (Pin3, Q06449)","SPOT intensity (Lsb3, P43603)","SPOT intensity (Cdc25, P04821)",also measured
LYEAMPPTLPHRDWK,0,0,1,2,0,0,0,0,2,0,151,0,2,59,0,1,0,19,0,0,"SPOT intensity (Lsb4, P32793): 1; SPOT intensity (Myo5, Q04439): 1; SPOT intensity (Sla1-3, P32790): 0; SPOT intensity (Bbc1, P47068): 0; SPOT intensity (Boi1, P38041): 0; SPOT intensity (Hof1, Q05080): 3; SPOT intensity (Cyk3, Q07533): 0"
QPWTDQFEKLEKEVS,0,0,0,0,0,0,2,0,1,0,0,0,0,0,5,0,0,0,0,4,"SPOT intensity (Lsb4, P32793): 0; SPOT intensity (Myo5, Q04439): 0; SPOT intensity (Sla1-3, P32790): 0; SPOT intensity (Bbc1, P47068): 0; SPOT intensity (Boi1, P38041): 0; SPOT intensity (Hof1, Q05080): 1; SPOT intensity (Cyk3, Q07533): 0"
TKHKAPPPPPPTAET,0,0,0,0,0,3,0,0,190,0,0,0,1,0,762,1,0,0,1,0,"SPOT intensity (Lsb4, P32793): 0; SPOT intensity (Myo5, Q04439): 1; SPOT intensity (Sla1-3, P32790): 0; SPOT intensity (Bbc1, P47068): 0; SPOT intensity (Boi1, P38041): 0; SPOT intensity (Hof1, Q05080): 1; SPOT intensity (Cyk3, Q07533): 0"
